Results from the supplement of paper PMC9233669.
Variants at the floor of the assay were thinned out.

Tests used:
biotinyl-Ile-oxazolone = assay: self-aminoacylation, catalytic enhancement (BIO) (fold over background); higher = more active; k-Seq, kA / k0A0; sequences stand for … in GGGAAUGGAUCCACAUCUACGAAUUC…UUCACUGCAGACUUGACGAAGCUG
Method in brief: (§1)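 Catalytic enhancement equals the median kA over the uncatalyzed rate, the latter read from the low-activity peak of a bimodal Gaussian fit. Values of kA came from fitting each sequence's fraction reacted to a pseudo-first-order model, with 1000 bootstraps. Reacted RNA was captured with streptavidin and quantified by triplicate qPCR and Illumina sequencing after 90 minutes at room temperature with 2–1250 μM biotinyl-aminoacyl-oxazolone and 0.43 μM mutagenized RNA pools bearing a 21-nt variable region.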

biotinyl-Trp-oxazolone = assay: self-aminoacylation, catalytic enhancement (BWO) (fold over background); higher = more active; k-Seq, kA / k0A0; sequences stand for … in GGGAAUGGAUCCACAUCUACGAAUUC…UUCACUGCAGACUUGACGAAGCUG
Method in brief: as §1

biotinyl-Met-oxazolone = assay: self-aminoacylation, catalytic enhancement (BMO) (fold over background); higher = more active; k-Seq, kA / k0A0; sequences stand for … in GGGAAUGGAUCCACAUCUACGAAUUC…UUCACUGCAGACUUGACGAAGCUG
Method in brief: as §1

biotinyl-Phe-oxazolone = assay: self-aminoacylation, catalytic enhancement (BFO) (fold over background); higher = more active; k-Seq, kA / k0A0; sequences stand for … in GGGAAUGGAUCCACAUCUACGAAUUC…UUCACUGCAGACUUGACGAAGCUG
Method in brief: as §1

biotinyl-Leu-oxazolone = assay: self-aminoacylation, catalytic enhancement (BLO) (fold over background); higher = more active; k-Seq, kA / k0A0; sequences stand for … in GGGAAUGGAUCCACAUCUACGAAUUC…UUCACUGCAGACUUGACGAAGCUG
Method in brief: as §1

biotinyl-Val-oxazolone = assay: self-aminoacylation, catalytic enhancement (BVO) (fold over background); higher = more active; k-Seq, kA / k0A0; sequences stand for … in GGGAAUGGAUCCACAUCUACGAAUUC…UUCACUGCAGACUUGACGAAGCUG
Method in brief: as §1

Sequence | self-aminoacylation (biotinyl-Ile-oxazolone) | self-aminoacylation (biotinyl-Trp-oxazolone) | self-aminoacylation (biotinyl-Met-oxazolone) | self-aminoacylation (biotinyl-Phe-oxazolone) | self-aminoacylation (biotinyl-Leu-oxazolone) | self-aminoacylation (biotinyl-Val-oxazolone)
AGUACCCUGGUCAUUGAGUGA [Fam2.1 aminoacylation ribozyme variant] | 3.86 | 9.07 | 6.37 | 37.2 | 7.4 | 3.39
CAACUUCAAACAAUGGGUCUG [Fam1A.1 aminoacylation ribozyme variant] | 1.21 | 0.937 | 0.966 | 2.23 | 1.06 | 0.929
AUCCACCUAGGUCAUCGGUUG [Fam2.2 aminoacylation ribozyme variant] | 1.31 | 1.84 | 1.5 | 5.85 | 1.41 | 1.52
CCAAACCUCAAGCAAUCGGUC [Fam1B.1 aminoacylation ribozyme variant] | 1.35 | 1.22 | 1.12 | 1.54 | 1.27 | 1.29
AUUCACGUAGGUAAUCGGGUG [Fam2.2 aminoacylation ribozyme variant] | 2.91 | 4.53 | 3.84 | 23.1 | 5.06 | 3.22
CCACCCUUCAAACAAUCGGUC [Fam1B.1 aminoacylation ribozyme variant] | 1.39 | 38.9 | 1.43 | 81.3 | 2.18 | 1.86
ACUCACCUAGGUCAUGGGGUG [Fam2.2 aminoacylation ribozyme variant] | 3.61 | 4.43 | 3.95 | 24.8 | 4.65 | 4
AAGUCUGCUAAUAGUCGCGAG [Fam3.1 aminoacylation ribozyme variant] | 1.26 | 3.06 | 1.77 | 5.39 | 1.36 | 1.33
CUACUUCAAACAAUCGAGCUG [Fam1A.1 aminoacylation ribozyme variant] | 0.85 | 0.396 | 0.59 | 0.816 | 0.481 | 0.706
CCACAUUUCAAGCAACCGGUC [Fam1B.1 aminoacylation ribozyme variant] | 1.53 | 1.34 | 1.09 | 1.11 | 1.11 | 1.64
AUGACCCUGGUCAACGAGUGA [Fam2.1 aminoacylation ribozyme variant] | 3.48 | 6.86 | 5.77 | 32.5 | 6.02 | 3.52
AAUGACCUAGGUCAUCGGGUG [Fam2.2 aminoacylation ribozyme variant] | 3.66 | 5.22 | 4.56 | 26.1 | 4.85 | 3.56
AUUCAACUAGGUCAGCGGGUG [Fam2.2 aminoacylation ribozyme variant] | 3.15 | 5.13 | 4.12 | 32.2 | 5.11 | 3.29
CCACAUUUGAAGCAAUCGGUC [Fam1B.1 aminoacylation ribozyme variant] | 1.28 | 0.886 | 1.04 | 1.09 | 1.17 | 1.31
AUUCUCCUAGGUGAUCGGGUG [Fam2.2 aminoacylation ribozyme variant] | 3.17 | 4.65 | 3.62 | 26.4 | 4.94 | 3.62
AUUCUCCUAGGUCAUCGGGCG [Fam2.2 aminoacylation ribozyme variant] | 3.24 | 4.23 | 3.97 | 13.6 | 5.06 | 3.43
AUUACCCUGGUCAUUAAGUGA [Fam2.1 aminoacylation ribozyme variant] | 4.88 | 13.4 | 11.2 | 55.5 | 10.3 | 5.31
AUUCACCUAGGUCAUCGGGAU [Fam2.2 aminoacylation ribozyme variant] | 3.59 | 5.12 | 6.11 | 18.7 | 9.22 | 3.4
UUACUUCAAACAAUCGGUAUG [Fam1A.1 aminoacylation ribozyme variant] | 1.16 | 7.05 | 1.02 | 12.4 | 1.3 | 1.02
CUACUUGAAACAAUCGUUCUG [Fam1A.1 aminoacylation ribozyme variant] | 0.635 | 0.379 | 0.614 | 0.5 | 0.645 | 0.561
AUCACCCUGGGCAUCGAGUGA [Fam2.1 aminoacylation ribozyme variant] | 4.64 | 11.2 | 10.6 | 69.7 | 13.1 | 5.3
AAGCUUGCAAAUAGUCGCAAG [Fam3.1 aminoacylation ribozyme variant] | 2.14 | 2.14 | 2.53 | 7.03 | 2.07 | 2.25
AUUCUCCUAGGGCAUCGGGUG [Fam2.2 aminoacylation ribozyme variant] | 2.92 | 3.58 | 4.21 | 28.7 | 4.7 | 3.73
CCAAACUUCAAGCAAACGGUC [Fam1B.1 aminoacylation ribozyme variant] | 0.832 | 0.811 | 0.699 | 0.911 | 0.607 | 0.846
AUGGCCCUGGUCAUCGAGUGA [Fam2.1 aminoacylation ribozyme variant] | 27.1 | 76.5 | 82.9 | 729 | 84.6 | 29.1
